The labels stand for the following.
B1: HW11 (peptide)
peptide: Ac-LVVEEDVLEEEIEQLEEKNKALKDEIEDLQKQLEKLY-NH2
modifications: lactam 20-24
SMILES: CC[C@H](C)[C@H](NC(=O)[C@H](CCC(=O)O)NC(=O)[C@@H]1CC(=O)NCCCC[C@H](NC(=O)[C@H](CC(N)=O)NC(=O)[C@H](CCCCN)NC(=O)[C@H](CCC(=O)O)NC(=O)[C@H](CCC(=O)O)NC(=O)[C@H](CC(C)C)NC(=O)[C@H](CCC(N)=O)NC(=O)[C@H](CCC(=O)O)NC(=O)[C@@H](NC(=O)[C@H](CCC(=O)O)NC(=O)[C@H](CCC(=O)O)NC(=O)[C@H](CCC(=O)O)NC(=O)[C@H](CC(C)C)NC(=O)[C@@H](NC(=O)[C@H](CC(=O)O)NC(=O)[C@H](CCC(=O)O)NC(=O)[C@H](CCC(=O)O)NC(=O)[C@@H](NC(=O)[C@@H](NC(=O)[C@H](CC(C)C)NC(C)=O)C(C)C)C(C)C)C(C)C)[C@@H](C)CC)C(=O)N[C@@H](C)C(=O)N[C@@H](CC(C)C)C(=O)N[C@@H](CCCCN)C(=O)N1)C(=O)N[C@@H](CCC(=O)O)C(=O)N[C@@H](CC(=O)O)C(=O)N[C@@H](CC(C)C)C(=O)N[C@@H](CCC(N)=O)C(=O)N[C@@H](CCCCN)C(=O)N[C@@H](CCC(N)=O)C(=O)N[C@@H](CC(C)C)C(=O)N[C@@H](CCC(=O)O)C(=O)N[C@@H](CCCCN)C(=O)N[C@@H](CC(C)C)C(=O)N[C@@H](Cc1ccc(O)cc1)C(N)=O
notes: cyclized form of the pair HW10/HW11; NΔ24 CΔ3; source: synthetic peptide (Fmoc SPPS, on-resin lactamization, RP-HPLC purified)
B2: HW10 (peptide)
peptide: Ac-LVVEEDVLEEEIEQLEEKNKALKDEIEDLQKQLEKLY-NH2
notes: linear form of the pair HW10/HW11; NΔ24 CΔ3 with point mutations for the bridging K and D; source: synthetic peptide (Fmoc SPPS, split batch, RP-HPLC purified)
B3: HW26 (peptide)
peptide: Ac-EAEELVVEEDVLEEEIEQLEEKNKALKDEIEDLQKQY-NH2
notes: linear form of the pair HW26/HW27; NΔ20 CΔ7; source: synthetic peptide (Fmoc SPPS, RP-HPLC purified)
B4: HW2 (peptide)
peptide: Ac-LARENEELEKEAEELVVEEDVLEEEIEQLEERNYALRKEIEDLQKQLEKL-NH2
notes: truncation NΔ10 CΔ3 of HW1; source: synthetic peptide (Fmoc SPPS, RP-HPLC purified)
B5: HW12 (peptide)
peptide: Ac-LVVEEDVLEEEIEQLEERNYALRKEIEDLQKQLEDL-NH2
notes: linear form of the pair HW12/HW13; NΔ24 CΔ3; source: synthetic peptide (Fmoc SPPS, split batch, RP-HPLC purified)
B6: HW15 (peptide)
peptide: Ac-EAEELVVEEDVLEEEIEQLEEKNKALKDEIEDLY-NH2
modifications: lactam 24-28
SMILES: CC[C@H](C)[C@H](NC(=O)[C@H](CCC(=O)O)NC(=O)[C@@H]1CC(=O)NCCCC[C@H](NC(=O)[C@H](CC(N)=O)NC(=O)[C@H](CCCCN)NC(=O)[C@H](CCC(=O)O)NC(=O)[C@H](CCC(=O)O)NC(=O)[C@H](CC(C)C)NC(=O)[C@H](CCC(N)=O)NC(=O)[C@H](CCC(=O)O)NC(=O)[C@@H](NC(=O)[C@H](CCC(=O)O)NC(=O)[C@H](CCC(=O)O)NC(=O)[C@H](CCC(=O)O)NC(=O)[C@H](CC(C)C)NC(=O)[C@@H](NC(=O)[C@H](CC(=O)O)NC(=O)[C@H](CCC(=O)O)NC(=O)[C@H](CCC(=O)O)NC(=O)[C@@H](NC(=O)[C@@H](NC(=O)[C@H](CC(C)C)NC(=O)[C@H](CCC(=O)O)NC(=O)[C@H](CCC(=O)O)NC(=O)[C@H](C)NC(=O)[C@H](CCC(=O)O)NC(C)=O)C(C)C)C(C)C)C(C)C)[C@@H](C)CC)C(=O)N[C@@H](C)C(=O)N[C@@H](CC(C)C)C(=O)N[C@@H](CCCCN)C(=O)N1)C(=O)N[C@@H](CCC(=O)O)C(=O)N[C@@H](CC(=O)O)C(=O)N[C@@H](CC(C)C)C(=O)N[C@@H](Cc1ccc(O)cc1)C(N)=O
notes: cyclized form of the pair HW14/HW15; NΔ20 CΔ10; source: synthetic peptide (Fmoc SPPS, on-resin lactamization, RP-HPLC purified)
B7: HW19 (peptide)
peptide: Ac-KEAEDLVVEEDVLEEEIEQLEERNYALRKEIKDLQDQ-NH2
modifications: lactam 1-5
notes: cyclized form of the pair HW18/HW19; NΔ19 CΔ7; source: synthetic peptide (Fmoc SPPS, on-resin lactamization, RP-HPLC purified)
B8: HW18 (peptide)
peptide: Ac-KEAEDLVVEEDVLEEEIEQLEERNYALRKEIKDLQDQ-NH2
notes: linear form of the pair HW18/HW19; NΔ19 CΔ7; source: synthetic peptide (Fmoc SPPS, RP-HPLC purified)
B9: HW13 (peptide)
peptide: Ac-LVVEEDVLEEEIEQLEERNYALRKEIEDLQKQLEDL-NH2
modifications: lactam 31-35
notes: cyclized form of the pair HW12/HW13; NΔ24 CΔ3; source: synthetic peptide (Fmoc SPPS, on-resin lactamization, RP-HPLC purified)
B10: HW16 (peptide)
peptide: Ac-EAEELVVEEDVLEEEIEQLEERNYALRKEIEDLQ-NH2
notes: linear form of the pair HW16/HW17; NΔ20 CΔ9; source: synthetic peptide (Fmoc SPPS, RP-HPLC purified)
B11: HW20 (peptide)
peptide: Ac-EAKELVDEEDVLEEEIEQLEERNYALRKEIEDLQKQ-NH2
notes: linear form of the pair HW20/HW21; NΔ20 CΔ7; source: synthetic peptide (Fmoc SPPS, RP-HPLC purified)
B12: HW21 (peptide)
peptide: Ac-EAKELVDEEDVLEEEIEQLEERNYALRKEIEDLQKQ-NH2
modifications: lactam 3-7
SMILES: CC[C@H](C)[C@H](NC(=O)[C@H](CCC(=O)O)NC(=O)[C@H](CCCCN)NC(=O)[C@H](CCCNC(=N)N)NC(=O)[C@H](CC(C)C)NC(=O)[C@H](C)NC(=O)[C@H](Cc1ccc(O)cc1)NC(=O)[C@H](CC(N)=O)NC(=O)[C@H](CCCNC(=N)N)NC(=O)[C@H](CCC(=O)O)NC(=O)[C@H](CCC(=O)O)NC(=O)[C@H](CC(C)C)NC(=O)[C@H](CCC(N)=O)NC(=O)[C@H](CCC(=O)O)NC(=O)[C@@H](NC(=O)[C@H](CCC(=O)O)NC(=O)[C@H](CCC(=O)O)NC(=O)[C@H](CCC(=O)O)NC(=O)[C@H](CC(C)C)NC(=O)[C@@H](NC(=O)[C@H](CC(=O)O)NC(=O)[C@H](CCC(=O)O)NC(=O)[C@H](CCC(=O)O)NC(=O)[C@@H]1CC(=O)NCCCC[C@H](NC(=O)[C@H](C)NC(=O)[C@H](CCC(=O)O)NC(C)=O)C(=O)N[C@@H](CCC(=O)O)C(=O)N[C@@H](CC(C)C)C(=O)N[C@@H](C(C)C)C(=O)N1)C(C)C)[C@@H](C)CC)C(=O)N[C@@H](CCC(=O)O)C(=O)N[C@@H](CC(=O)O)C(=O)N[C@@H](CC(C)C)C(=O)N[C@@H](CCC(N)=O)C(=O)N[C@@H](CCCCN)C(=O)N[C@@H](CCC(N)=O)C(N)=O
notes: cyclized form of the pair HW20/HW21; NΔ20 CΔ7; source: synthetic peptide (Fmoc SPPS, on-resin lactamization, RP-HPLC purified)
B13: HW22 (peptide)
peptide: Ac-EAEELVVEEKVLEDEIEQLEERNYALRKEIEDLQKQ-NH2
notes: linear form of the pair HW22/HW23; NΔ20 CΔ7; source: synthetic peptide (Fmoc SPPS, RP-HPLC purified)
B14: HW28 (peptide)
peptide: Ac-EAEELVVEEDVLEEEIEQLEERNYALRKEIKDLQDQ-NH2
notes: linear form of the pair HW28/HW29; NΔ20 CΔ7; source: synthetic peptide (Fmoc SPPS, RP-HPLC purified)
B15: HW25 (peptide)
peptide: Ac-EAEELVVEEDVLEEEIKQLEDRNYALRKEIEDLQKQ-NH2
modifications: lactam 17-21
SMILES: CC[C@H](C)[C@H](NC(=O)[C@H](CCC(=O)O)NC(=O)[C@H](CCCCN)NC(=O)[C@H](CCCNC(=N)N)NC(=O)[C@H](CC(C)C)NC(=O)[C@H](C)NC(=O)[C@H](Cc1ccc(O)cc1)NC(=O)[C@H](CC(N)=O)NC(=O)[C@H](CCCNC(=N)N)NC(=O)[C@@H]1CC(=O)NCCCC[C@H](NC(=O)[C@@H](NC(=O)[C@H](CCC(=O)O)NC(=O)[C@H](CCC(=O)O)NC(=O)[C@H](CCC(=O)O)NC(=O)[C@H](CC(C)C)NC(=O)[C@@H](NC(=O)[C@H](CC(=O)O)NC(=O)[C@H](CCC(=O)O)NC(=O)[C@H](CCC(=O)O)NC(=O)[C@@H](NC(=O)[C@@H](NC(=O)[C@H](CC(C)C)NC(=O)[C@H](CCC(=O)O)NC(=O)[C@H](CCC(=O)O)NC(=O)[C@H](C)NC(=O)[C@H](CCC(=O)O)NC(C)=O)C(C)C)C(C)C)C(C)C)[C@@H](C)CC)C(=O)N[C@@H](CCC(N)=O)C(=O)N[C@@H](CC(C)C)C(=O)N[C@@H](CCC(=O)O)C(=O)N1)C(=O)N[C@@H](CCC(=O)O)C(=O)N[C@@H](CC(=O)O)C(=O)N[C@@H](CC(C)C)C(=O)N[C@@H](CCC(N)=O)C(=O)N[C@@H](CCCCN)C(=O)N[C@@H](CCC(N)=O)C(N)=O
notes: cyclized form of the pair HW24/HW25; NΔ20 CΔ7; source: synthetic peptide (Fmoc SPPS, on-resin lactamization, RP-HPLC purified)
B16: HW24 (peptide)
peptide: Ac-EAEELVVEEDVLEEEIKQLEDRNYALRKEIEDLQKQ-NH2
notes: linear form of the pair HW24/HW25; NΔ20 CΔ7; source: synthetic peptide (Fmoc SPPS, RP-HPLC purified)
B17: HW17 (peptide)
peptide: Ac-EAEELVVEEDVLEEEIEQLEERNYALRKEIEDLQ-NH2
modifications: lactam 28-32
notes: cyclized form of the pair HW16/HW17; NΔ20 CΔ9; source: synthetic peptide (Fmoc SPPS, on-resin lactamization, RP-HPLC purified)

Positions of bridges follow the written chain, without caps; N, C: chain ends.

T1 sequence (P05412 252-315): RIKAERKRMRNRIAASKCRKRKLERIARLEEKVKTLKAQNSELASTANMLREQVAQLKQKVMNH

One series addresses T1, cJun (60 amino acid construct encompassing the entire bZIP domain) (UniProt P05412 252-315). The experiment in a line: cell-based or functional assay.
Conditions: not given
For B1, the “IC50 CD: peptide added to pre-incubated cJun (20 μM) and TRE DNA (5 μM); blocks cJun/TRE DNA binding” value (“IC50 CD … blocks cJun/TRE DNA binding” below) turned out to be 73.5 µM.
As to B2, the “IC50 CD … blocks cJun/TRE DNA binding” value came to 83.9 µM.
Still for that read-out and setting: in the case of B3 it was 121 µM.
On to B4, for which the “IC50 CD … blocks cJun/TRE DNA binding” value was 16.6 µM.
B5: the “IC50 CD … blocks cJun/TRE DNA binding” value came to 94.6 µM.
In the case of B6, the “IC50 CD … blocks cJun/TRE DNA binding” value stood at 118 µM.
In the case of B7, the “IC50 CD … blocks cJun/TRE DNA binding” value worked out at 92.5 µM.
With B8, the “IC50 CD … blocks cJun/TRE DNA binding” value was 115 µM.
With B9, the “IC50 CD … blocks cJun/TRE DNA binding” value was 69 µM.
In the case of B10, the “IC50 CD … blocks cJun/TRE DNA binding” value came to 725 µM.
The same measure, in the same setting: in the case of B11 it was 100 µM; in that of B12, 81.1 µM; in that of B13, 114 µM.
Turning to B14, the “IC50 CD … blocks cJun/TRE DNA binding” value came out at 101 µM.
As to B15, the “IC50 CD … blocks cJun/TRE DNA binding” value amounted to 94.4 µM.
For the molecule B16, the “IC50 CD … blocks cJun/TRE DNA binding” value was 98.9 µM.
For B17, the “IC50 CD … blocks cJun/TRE DNA binding” value was 140 µM.

Another series concerns the target T1, cJun (60 amino acid construct …). The experiment in a line: CD thermal denaturation; peptide (5 μM) with cJun (5 μM); ellipticity at 222 nm, 1°C to 90°C; 20 mM potassium phosphate, 150 mM potassium fluoride, 2 mM TCEP, pH 7.4; two-state fit gives the Tm of the peptide-cJun heterodimer; duplicate experiments. Particulars: both partners purified.
On to B1, for which the “Tm of the peptide-cJun heterodimer” value came to 67.2 °C.
As to B2, the “Tm of the peptide-cJun heterodimer” value came out at 64.3 °C.
B3: the “Tm of the peptide-cJun heterodimer” value was determined as 56.2 °C.
Take B4: the “Tm of the peptide-cJun heterodimer” value was 68.5 °C.
For B5, the “Tm of the peptide-cJun heterodimer” value came out at 62.1 °C.
B6: the “Tm of the peptide-cJun heterodimer” value worked out at 52.5 °C.
Same read-out and setting: as for B7, the figure is 58.5 °C; as for B8, 56.5 °C.
The same measure, in the same setting: as for B9, the figure is 68.3 °C; as for B10, 53.8 °C.
Regarding B11, the “Tm of the peptide-cJun heterodimer” value worked out at 57.5 °C.
For the molecule B12, the “Tm of the peptide-cJun heterodimer” value is 59.4 °C.
As to B13, the “Tm of the peptide-cJun heterodimer” value stood at 54.9 °C.
As for B14, the “Tm of the peptide-cJun heterodimer” value is 55.6 °C.
In the case of B15, the “Tm of the peptide-cJun heterodimer” value was determined as 60.9 °C.
The same measure, in the same setting: as for B16, the figure is 55.5 °C; as for B17, 57.2 °C.
